Patent US20090117126A1 (UCB, published 2009)
Each block holds one binder with its values, some of them ahead of it.

Experiments:
recombinant human IL-17 [1] = biological target: T1, recombinant human IL-17 (human, UniProt Q16552 20-155, limits assumed); assay: BIAcore 3000; mean of the five replicates of Table 1; mean of the replicates of Table 1; CDP435 captured by anti-human IgG F(ab)2, IL-17 in solution
T1 construct: also called hIL-17; IL-17A
T1 sequence (looked up): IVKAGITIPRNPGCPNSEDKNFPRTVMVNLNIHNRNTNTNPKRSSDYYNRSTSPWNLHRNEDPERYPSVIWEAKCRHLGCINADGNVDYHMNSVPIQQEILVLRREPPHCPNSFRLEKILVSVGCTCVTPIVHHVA
Procedure: The assay format used CDP435 captured by anti-human IgG F(ab)₂ with a titration of recombinant human IL-17 in the solution phase. BIA (Biamolecular Interaction Analysis) was performed using a BIAcore 3000 (BIAcore AB). Affinipure F(ab′)₂ Fragment goat anti-human IgG, F(ab)₂ fragment specific (Jackson ImmunoResearch) was immobilised on a CM5 Sensor Chip via amine coupling chemistry to a capture level of ≈9000 response units (RUs). HBS-EP buffer (10 mM HEPES pH 7.4, 0.15 M NaCl, 3 mM EDTA, 0.005% Surfactant P20, BIAcore AB) was used as the running buffer with a flow rate of 10 μl/min. An injection of CDP435 was made at 10 μl/min in order to obtain around 200 Ru of Fab captured by the immobilised anti-human IgG-F(ab)₂ to the surface. Human IL-17 was titrated over the captured antibody Fab fragment at various concentrations at a flow rate of 30 μl/min. The surface was regenerated by a 2×10 μl injection of 40 mM HCl, followed by a 5 μl injection of 5 mM NaOH at a flow rate of 10 μl/min.
Background subtraction binding curves were analysed using the BIAevaluation software (version 3.2) following standard procedures. Kinetic parameters were determined from the fitting algorithm. The affinity was measured at human IL-17 concentrations at or below 12.5 nM.

monkey recombinant IL-17 = monkey recombinant IL-17 (monkey); assay: cell-based or functional assay
recombinant human IL-17 [2] = biological target: T1, recombinant human IL-17; assay: cell-based or functional assay
recombinant human IL-17 [3] = biological target: T1, recombinant human IL-17; assay: cell-based or functional assay; remark: listed apart in the source

Kd (recombinant human IL-17 [1]): 0.224 nM
IC50, monkey IL-17 (25 ng/ml) induced IL-6 production from Hela cells (monkey recombinant IL-17): 0.147 µg/mL
IC50, human IL-17 (25 ng/ml) induced IL-6 production from Hela cells (recombinant human IL-17 [2]): 0.158 µg/mL
B1: CDP435 (PEGylated Fab fragment, gH11gL3 graft, 2 x 20 kDa PEG) (Fab, V domains shown)
VH: EVQLVESGGGVVQPGGSLRLSCAVSGFSLTTYGVHWVRQAPGKGLEWVAVIWSDGYTTYNSALKSRFTISRDNSKNTVYLQMNSLRAEDTAVYYCARNDGDYFYSMDYWGQGTLVTVSS
VL: DVQMTQSPSSLSASVGDRVTITCRSSQSLVHSNGNTYLHWYQQKPGKAPKLLIYKVSNRFSGVPSRFSGSGSGTDFTLTISSLQPEDFATYYCSQSTHVPTFGQGTKVEIKR
modifications: 20 kDa PEG-maleimide on the interchain cysteine of CL (position 214 by Kabat numbering, 218 by sequential numbering); 20 kDa PEG-maleimide on the interchain cysteine of CH1 (cys-233 by Kabat numbering, cys-222 by sequential numbering; C-terminal residue)
notes: no interchain disulphide after PEGylation

IC50 (read off the curve) (recombinant human IL-17 [3]): ~0.2 µg/mL
B2: antibody Fab fragment of CDP435 (not PEGylated) (Fab, V domains shown)
VH: B1 VH
VL: B1 VL

IC50 (read off the curve) (recombinant human IL-17 [3]): ~0.2 µg/mL
B3: murine monoclonal antibody IL-17F4.100 (antibody, V domains shown)
VH: QVQLKESGPGLVAPSQSLSITCTVSGFSLTTYGVHWIRQPPGKGLEWLVVIWSDGYTTYNSALKSRLSITKDNSKSQVFLKMNSLQTDDTAMYYCARNDGDYFYSMDYWGQGTSVTVSS
VL: DVVMTQTPLSLPVSLGDQASFSCRSSQSLVHSNGNTYLHWYLQKPGQSPKLLIYKVSNRFSGVPDRFSGSGSGTDFTLKISRVEAEDLGVYFCSQSTHVPTFGGGTKLEIKR
